The results in this text go back to patent US20200323863.

The target in data set [1] is T1, GST-MOB1 (GST fusion of MOB1, from pGEX-HA-MOB1), Q9H8S9.
T1 chain: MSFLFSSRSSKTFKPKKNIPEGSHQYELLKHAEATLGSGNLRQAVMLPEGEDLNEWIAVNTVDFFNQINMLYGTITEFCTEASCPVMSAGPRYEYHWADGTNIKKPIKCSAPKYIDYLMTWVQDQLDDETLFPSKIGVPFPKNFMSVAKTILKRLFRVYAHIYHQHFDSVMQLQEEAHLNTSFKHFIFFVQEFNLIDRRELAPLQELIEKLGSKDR

For data set [2], the target named is YAP1 Recombinant Protein (Abnova H00010413-P01), P46937.

B1: active recombinant human FAK (catalytic domain, FAK-C) (protein)
chain: ETDDYAEIIDEEDTYTMPSTRDYEIQRERIELGRCIGEGQFGDVHQGIYMSPENPALAVAIKTCKNCTSDSVREKFLQEALTMRQFDHPHIVKLIGVITENPVWIIMELCTLGELRSFLQVRKYSLDLASLILYAYQLSTALAYLESKRFVHRDIAARNVLVSSNDCVKLGDFGLSRYMEDSTYYKASKGKLPIKWMAPESINFRRFTSASDVWMFGVCMWEILMHGVKPFQGVKNNDVIGRIENGERLPMPPNCPPTLYSLMTKCWAYDPSRRPRFTELKAQLSTILEEEKAQQEERMRMESRRQ
B1: the “Y26 phosphorylation of GST-MOB1 in an in vitro kinase reaction (immunoblot)” value in data set [1] is “FAK was able to directly phosphorylate MOB1 on its Y26 by in vitro kinase reaction using purified recombinant proteins”. For the same protein, in data set [2], the “YAP Y357 phosphorylation in an in vitro kinase reaction (immunoblot)” value is “FAK was able to phosphorylate YAP at Y357 in vitro”.
